The values that follow come from publication PMC11208146, “Molecular basis for transposase activation by a dedicated AAA+ ATPase”.

In series [1] the target is IstA;IstB E167Q (Walker B mutant) (Geobacillus stearothermophilus (IS5376, …, UniProt Q45618;Q45619 1-400;1-251, |E167Q)). Kind of series: cryo-EM structure (3.6 A; core 3.2 A); ATP, with ADP in IstA-bound IstB subunits; Mg2+; IstB-DNA: 20 mM HEPES pH 7.5, 150 mM NaCl, 5 mM MgCl2, 5% glycerol, 1 mM ATP, 1 mM DTT; dialysis at 4 C, SEC at room temperature; IstB:DNA 6.5:1. STC complex buffer not in the material. The settings on record: protein: recombinant;recombinant; tags: C-terminal MBP-His6, cleaved with TEV protease;His6-MBP, cleaved with PreScission protease; chain copies: 4;20; 5' overhang 5 nt on non-transferred strand; half-substrates of 3 strands, 2 copies pair via the insertion site (5 bp spacing).

The target of another series is IstA;IstB (Geobacillus stearothermophilus (IS5376, …, UniProt Q45618;Q45619 1-400;1-251, |)). Briefly: negative-stain EM 2D averages; wild-type IstB; IstB-DNA: 20 mM HEPES pH 7.5, 150 mM NaCl, 5 mM MgCl2, 5% glycerol, 1 mM ATP, 1 mM DTT; dialysis at 4 C, SEC at room temperature; IstB:DNA 6.5:1. STC complex buffer not in the material. The settings on record: protein: recombinant;recombinant; tags: C-terminal MBP-His6, cleaved with TEV protease;His6-MBP, cleaved with PreScission protease; chain copies: 4;20; 5' overhang 5 nt on non-transferred strand; half-substrates of 3 strands, 2 copies pair via the insertion site (5 bp spacing).

The target of a further series is IstB (Geobacillus stearothermophilus (IS5376, …, UniProt Q45619 1-251)). Kind of series: cryo-EM structure (3.2 A); size-exclusion co-elution; 1 mM ATP, 5 mM MgCl2; IstB-DNA: 20 mM HEPES pH 7.5, 150 mM NaCl, 5 mM MgCl2, 5% glycerol, 1 mM ATP, 1 mM DTT; dialysis at 4 C, SEC at room temperature; IstB:DNA 6.5:1. STC complex buffer not in the material. The settings on record: protein: recombinant; tags: His6-MBP, cleaved with PreScission protease; chain copies: 10; blunt.

B1: IS21 strand-transfer complex (STC) DNA (dsDNA)
DNA 1: CCTTCTGGGGAATTTTAAACCGGCGATTTTGGGGAAAAAATAATCGGCCTTGACAGCTGCACAGTAAGAGAATTATGCAGTGCTGCCATAACCATGAGTGATAACACTGCGGCCAACTTACTTCTGACAA
DNA 2: ATTCATGTCAAGGCCGATTATTTTTTCCCCAAAATCGCCGGTTTAAAATTCCCCAGAAGG
DNA 3: TTGTCAGAAGTAAGTTGGCCGCAGTGTTATCACTCATGGTTATGGCAGCACTGCATAATTCTCTTACTGT
As to B1, the binding result (in series [1]; with IstA;IstB) was “binds” throughout.

B2: random 60-mer target duplex (dsDNA)
DNA 1: TGCTTGCGATGATCCGACGTGTTAGCCACGCTGACTAGTTATGCCATGCCTCCCTTCAGG
DNA 2: CCTGAAGGGAGGCATGGCATAACTAGTCAGCGTGGCTAACACGTCGGATCATCGCAAGCA
As for B2, in the series with IstB, the binding result is reported as “binds”.
